± gives the half width of the 95% confidence interval.
Legend:
[1] = folding stability dG unfold (combined trypsin and chymotrypsin); higher = more stable
Procedure, shortened: (§1)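 K50 was inferred by Bayesian fitting of sequencing counts obtained after protease digestion of designed mini-proteins. Unfolding free energy was derived by comparison with a sequence-predicted unfolded-state K50 and a shared folded-state K50, for each protease or both combined. The mini-proteins were under 80 residues, had no cysteine, were carried in a PA-tagged cDNA display construct, and were kept only if AlphaFold2 dimer inter-PAE exceeded 15.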

[2] = folding stability dG unfold from trypsin proteolysis; higher = more stable
Procedure, shortened: as §1

[3] = folding stability dG unfold from chymotrypsin proteolysis; higher = more stable
Procedure, shortened: as §1

| Sequence | folding stability dG unfold [1] | folding stability dG unfold [2] | folding stability dG unfold [3] |
| --- | --- | --- | --- |
| SAGGDMYFVTVEIWRPREPDPDGEWKWEPIPITFPFDPDQAEDFAKEIINILQKDGYHVKIKVIPMPSAGGS [r8_10_TrROS] | 3.17 ± 0.43 kcal/mol | 2.56 ± 0.1 kcal/mol | 3.75 ± 0.28 kcal/mol |
| SAGGSMPFRPLDVKVTVERLPDGTIRITTTLRQPDSPAAVTTEVKEVPLAELVKKRGRPVTAEDLLSAGGSA [r2_180_JUSTAS] | 0.858 ± 0.19 kcal/mol | 0.132 ± 0.12 kcal/mol | 1.21 ± 0.096 kcal/mol |
| SAGGSAGGSEKEGTLLVKLINPENPEEKVIPLKFKVKTKEDVDTFLENIKKKYPGVTVEVEDLSAGGSAGGS [r12_65_TrMRF] | 0.643 ± 0.17 kcal/mol | 0.659 ± 0.049 kcal/mol | 0.684 ± 0.21 kcal/mol |
| SAGGSAGGSMPVVEVEITVSYTVPETGEILTKPETITMTPEEAEKIKEELEKKGYKVEVKYNPKSAGGSAGG [r6_97_JUSTAS] | 1.15 ± 0.1 kcal/mol | 0.824 ± 0.043 kcal/mol | 1.21 ± 0.067 kcal/mol |
| SAGGSKKEIEALKGKTVTFPKIRDPKTNELLEPVKVKIVEVKYDKDTKKIYIKVEVDGKIYTFEIDSAGGSA [r2_314_TrROS_Hall] | 2.5 ± 0.37 kcal/mol | 0.868 ± 0.19 kcal/mol | 2.85 ± 0.062 kcal/mol |
| SSPVSFSTSTTSPPSPSSLPDGSTLSTTTTTYTAPDGSRYTVTSTTLTPPTGPATPVSTTTTSTGSSGPSSA [r9_394_JUSTAS] | 0.872 ± 0.046 kcal/mol | 0.514 ± 0.018 kcal/mol | 1.08 ± 0.043 kcal/mol |
| SAGMTIRIVVPKKDMSVEELAKKLKEELGLPEDAKVTIKVEKLPNGELVLTITVPSEEERKKIEELLKSAGG [r19_215_TrROS_Hall] | 2.98 ± 0.25 kcal/mol | 2.9 ± 0.13 kcal/mol | 2.91 ± 0.15 kcal/mol |
| SAGTIIIPMKEIREELGYPPGSPPSQMRDRIRDLIRRLYPRGIRPTDIDIESNGDNWYITVDIKLPPGASAG [r14_158_TrROS] | 2.63 ± 0.11 kcal/mol | 2.26 ± 0.058 kcal/mol | 2.76 ± 0.053 kcal/mol |
| SAGDPDRPLGPVEITVDPEENTLTITFGDLTLTLPLPEGVEATAEVFPDHVVLTVRYPDGTIRTFVFPLSAG [r5_21_TrMRF] | 5.06 ± 0.16 kcal/mol | 4.14 ± 0.13 kcal/mol | 5.09 ± 0.15 kcal/mol |
| SLKPGEPRTVEMTMIIPITPDEIAKLFGLDIPPGTYIMVEMRMRVPPNADIEMDPDIHLYDPDDNKWFPISA [r9_349_TrROS] | 2.86 ± 0.22 kcal/mol | 2.18 ± 0.089 kcal/mol | 3.29 ± 0.086 kcal/mol |
| SAGGVEELAKELAERLREELERRLGVEKVEVVDVEVVEVDEETGTVTVRITVRLPDGELLELELELHLDSAG [r5_20_TrROS_Hall] | 3.39 ± 0.15 kcal/mol | 3.47 ± 0.17 kcal/mol | 3.08 ± 0.13 kcal/mol |
| SAGMTVKTEVHTTTLPETGLVRTEETVTYPDGSVIRRTGDSNPETGEVTTTVTTPDGTLLATETTTITPSAG [r14_524_JUSTAS] | 0.184 ± 0.048 kcal/mol | -0.585 ± 0.072 kcal/mol | 0.426 ± 0.033 kcal/mol |
| SAGGSAGGSAGKIVILVEPSVEELKAAAEALPGAKVTLEEVEVDGRKYLLATIELPPELLSAGGSAGGSAGG [r17_542_TrROS_Hall] | 2.23 ± 0.07 kcal/mol | 2.17 ± 0.074 kcal/mol | 2.27 ± 0.033 kcal/mol |
| SAGGGPMPIDVEVLEVTPDSVRIRYPETGAVFTFDPNKEHEFTLPDGSRITVTFKPDGSVSATVTVPGSAGG [r13_352_JUSTAS] | 4.16 ± 0.14 kcal/mol | 4.35 ± 0.3 kcal/mol | 4.13 ± 0.13 kcal/mol |
| SAGGSAGGSAGMVEVYSEPDGTVIVKETVPGKVVITVLEKVPGGPGLNPVTTTVVPPGLLSAGGSAGGSAGG [r11_844_JUSTAS] | 1.11 ± 0.043 kcal/mol | 1.4 ± 0.037 kcal/mol | 0.786 ± 0.058 kcal/mol |
| GPPLPVEVDAEVDVVPLPGGPALVVRRPVRFPVTRRIVVVEVVRLPDGSVVARVDVYDPGDGRPRTFTLPLS [r1_261_TrMRF] | 1.9 ± 0.043 kcal/mol | 0.795 ± 0.04 kcal/mol | 2.373 ± 0.021 kcal/mol |
| SAGGSAGTVKFKQPFPFYDPGNGWPFPIDIKITVEYKPDPNGEPKWQITKIEIKMPEGSPALKDLISAGGSA [r15_258_TrROS] | 2 ± 0.14 kcal/mol | 1.82 ± 0.11 kcal/mol | 2.24 ± 0.048 kcal/mol |
| SAGGSAGGSAGKKKLVIEQRPDGLVRIRLPNGKVLEVSREELEELAKELGIDKVEIYPVPSAGGSAGGSAGG [r11_312_TrROS_Hall] | 1.83 ± 0.05 kcal/mol | 1.58 ± 0.025 kcal/mol | 2.067 ± 0.019 kcal/mol |
| SAGGSAGGRFRIKFKNGPVIEIDPNEPTIRFPDGSRRFPLNGDDAEEALEEFLSNGMKITEIEPSAGGSAGG [r6_340_TrROS] | 0.641 ± 0.16 kcal/mol | -0.149 ± 0.2 kcal/mol | 0.99 ± 0.14 kcal/mol |
| SAGGMIEVTIPLEEYFDENGNPTEEAKKKIEEAKKKAEELKKKGEPAEVKVTVVEPEPYVGPDNPELVSAGG [r13_731_JUSTAS] | 0.652 ± 0.28 kcal/mol | 0.278 ± 0.29 kcal/mol | 0.569 ± 0.059 kcal/mol |
| SMVKIYAAPNVPPEQREAIERLVKRILENPDIPIDPETIGKLIKEEAGNPELTIDRIEILPLVPPGVAEKSA [r9_620_TrMRF] | 0.794 ± 0.099 kcal/mol | 0.79 ± 0.064 kcal/mol | 0.896 ± 0.082 kcal/mol |

| Sequence | folding stability dG unfold [1] | folding stability dG unfold [2] | folding stability dG unfold [3] |
| --- | --- | --- | --- |
| SAGGSAGGSMVIRVTTKDGEEVELEIEGMSLEEIKALLPEGVKEVKIEKVEVEPVEVEEEEEESAGGSAGGS [r12_767_TrROS_Hall] | 1.72 ± 0.21 kcal/mol | 1.31 ± 0.1 kcal/mol | 1.99 ± 0.27 kcal/mol |
| SAGGSAGGKLVVLLVRRPDGSLALRVTDAENPAEALEAARRNGMEALPLEVDDLEEFLEAIGLGSAGGSAGG [r6_495_TrMRF] | 2.17 ± 0.13 kcal/mol | 0.875 ± 0.076 kcal/mol | 2.65 ± 0.09 kcal/mol |
| SAGGSAGGSAGGEIVIPVDGKLVVIKLKNGKKITVPVEDLKELLKKLGIKNAKIEVVPAKSAGGSAGGSAGG [r7_235_TrROS_Hall] | 2.56 ± 0.17 kcal/mol | 1.8 ± 0.088 kcal/mol | 2.82 ± 0.049 kcal/mol |
| SAGGSAPEVKIVDVEEVDGEVKIKVEAPPGARLLIFNRATGKWEEVEVKPGDTITLPPGALVLVEPSAGGSA [r15_418_TrROS_Hall] | 2.88 ± 0.1 kcal/mol | 1.77 ± 0.025 kcal/mol | 3.22 ± 0.035 kcal/mol |
| SAGGSAGGSAGGGSVTLKRPGGSEVTLPDVTADSTITTLPDGTTVVTIPGTGKTYVVPSSAGGSAGGSAGGS [r10_1035_JUSTAS] | 0.495 ± 0.093 kcal/mol | 0.604 ± 0.03 kcal/mol | 0.111 ± 0.2 kcal/mol |
| SAGGSAGGSAGGKIVKIEFDKETKEIKITLPNGKKITISKEDLKNMKIEIKVYPKKKKKKSAGGSAGGSAGG [r7_98_TrROS_Hall] | 1.8 ± 0.35 kcal/mol | 0.774 ± 0.093 kcal/mol | 2.45 ± 0.1 kcal/mol |
| SAGGSEEERKRILEELKKKNPEKDVEVKVERKTYKVPAGTVVTLPDGTKIVAPADTTVEIYKVEIIKSAGGS [r16_357_JUSTAS] | 1.95 ± 0.2 kcal/mol | 1.32 ± 0.068 kcal/mol | 2.14 ± 0.037 kcal/mol |
| SAGMGPNEVKPIEIEFEVYETGEGEPYLVGKAIAKLYVDPVEGTVRLEIKDPEKPEPFITFEFPVEEISAGG [r19_413_TrMRF] | 1.94 ± 0.065 kcal/mol | 1.38 ± 0.039 kcal/mol | 2.22 ± 0.037 kcal/mol |
| SGMPTLEIEIEFPEVKGETPVPGTDRTLIDTPMKITVTKIENGPPETVEVELPPKLWTEEIEERIKKILGSA [r9_656_JUSTAS] | 0.485 ± 0.47 kcal/mol | -0.248 ± 0.66 kcal/mol | 1.2 ± 0.27 kcal/mol |
| SAGGSAGGSTILDALEKGFEITDIEPNNDGPYMLTVRNPEEGYRVTIMIHPNGDIMIQVQPVPSAGGSAGGS [r12_166_TrROS] | 2.06 ± 0.1 kcal/mol | 1.83 ± 0.075 kcal/mol | 2.19 ± 0.042 kcal/mol |
| SAGGSAGGSAGGGSMPVKEEVIVEVDPTEVPVTLVTTTVVKTYPDGSVEETVTVEVKLVSAGGSAGGSAGGS [r10_598_JUSTAS] | 0.777 ± 0.18 kcal/mol | 0.818 ± 0.085 kcal/mol | 0.281 ± 0.059 kcal/mol |
| SAMEVVEERELPDGTTVVTIPDPATGDTVVLVTDPEGKITVYTYPSSTGIPTEEVFPDLSVEEAIARLASAG [r14_760_JUSTAS] | 0.775 ± 0.058 kcal/mol | 0.645 ± 0.046 kcal/mol | 0.858 ± 0.071 kcal/mol |
| SAGSMTLESEDPSSGLRVTVTVEREPFLLPDGTRVLRRTVTTTVTTPDGEVLESEDVEVVAVLPPDAPLSAG [r5_871_JUSTAS] | 2.46 ± 0.077 kcal/mol | 2.4 ± 0.085 kcal/mol | 2.43 ± 0.04 kcal/mol |
| SAGGSAGGSAGIEAVVKELEELGYEVEATPEPDGSVVIEVTLKNGEKLTVRVGPFGGVEASAGGSAGGSAGG [r17_503_TrMRF] | 2.24 ± 0.13 kcal/mol | 2.21 ± 0.14 kcal/mol | 2.2 ± 0.071 kcal/mol |
| SAGGSAMEIEVTLTDPALLEALIAELPYPVEVSEDPTDPSVTRVTLRTETSAEEVREAVARALGLESAGGSA [r15_118_JUSTAS] | 1.07 ± 0.081 kcal/mol | 0.732 ± 0.037 kcal/mol | 1.27 ± 0.06 kcal/mol |
| KKITVVRPAKTLEEVEQAVRDLLKELNIPEGTKVEVKVEEIPETGAFVATVTVTLPNGEKIEVTVLFPKLFS [r1_84_TrMRF] | 2.68 ± 0.09 kcal/mol | 2.26 ± 0.092 kcal/mol | 2.95 ± 0.081 kcal/mol |
| SAGMKVIKVKGEEELEKALREEAEKKGLSEEEMKEFIEEAKKRTKIEKEGDEYYVTIEPEGKPVPGNKLSAG [r5_717_JUSTAS] | 0.474 ± 0.37 kcal/mol | 1.04 ± 0.088 kcal/mol | -0.879 ± 0.52 kcal/mol |
| SAGGSAGGSAGGMKIKITVEVFDPNTGKVLKTEEFTSLEEAEKKVKEEDPNKVKVTVKEESAGGSAGGSAGG [r7_201_JUSTAS] | 1.33 ± 0.077 kcal/mol | 0.805 ± 0.056 kcal/mol | 1.71 ± 0.032 kcal/mol |
| SAGPVIATADVEVYEDGTAKITLTLRTLTENGELLPDVTLPITLPLPPGSKATITVNLDDGEITITVGDSAG [r5_179_TrMRF] | 3.96 ± 0.11 kcal/mol | 4.07 ± 0.12 kcal/mol | 3.79 ± 0.16 kcal/mol |
| SAGGGVKFELVDIESDGDGKYIAKIKVYNENGELIEEIEIEVKGLKNVTLTIPLINKPKKIEIKVTPESAGG [r13_427_TrMRF] | 1.21 ± 0.12 kcal/mol | 0.752 ± 0.03 kcal/mol | 1.51 ± 0.093 kcal/mol |
| SAGGMTKTESEVFFEPDGSSSSAKVTITVDDGPLTANVTISPDSVTTTINYPDGSTVTTTTSVSPAASAGGS [r16_108_JUSTAS] | 1.27 ± 0.13 kcal/mol | 0.942 ± 0.081 kcal/mol | 1.48 ± 0.052 kcal/mol |

From the supplement of paper PMC12764529
